The results in this text go back to patent publication US20250367120A1, “PHARMACEUTICAL COMPOSITION AND METHOD FOR PRODUCING SAME” (SUNSHO PHARMACEUTICAL CO., LTD., priority 2022, published 2025).

The data set can be described thus: Area under the curve (AUC) and increase ratio (ER) of FD-4 in plasma after oral administration to Wistar rats. The protocol: Next, FD-4 was orally administered to Wistar rats using an oral sonde so that the dosage was 0.3 mg/kg. After the administration of the sample, blood was collected six times in total until six hours after the administration of the sample, and plasma was fractionated.
It is noted that “AUCt” is AUC (ng·h/mL) of the test preparation, and “dosage t” is dosage (mg/kg) of the test preparation (target data of the test preparation obtained in the above 2).

Usually AUC stands for the area under the concentration-time curve, a measure of exposure. “fluorescein isothiocyanate-dextran 4 [Comparative Example 4]”: the AUC by setting is: (Wistar rats, FD-4 dosage 0.3 mg/kg, up to 6 hr, linear trapezoidal method) 24.3 ng·h/mL; (rat, FD-4 dosage 5.0 mg/kg) 390.5 ng·h/mL. Besides, the “AUCs (reference data of standard preparation)” value (rat, FD-4 dosage 0.3 mg/kg) is reported as 24.3 ng·h/mL.
